In article PMC11026580 (2024):

Molecular target: FcαRI (CD89) (Homo sapiens, UniProt P24071)
Assay: SPR

Sequence of FcαRI (CD89) (P24071 22-287): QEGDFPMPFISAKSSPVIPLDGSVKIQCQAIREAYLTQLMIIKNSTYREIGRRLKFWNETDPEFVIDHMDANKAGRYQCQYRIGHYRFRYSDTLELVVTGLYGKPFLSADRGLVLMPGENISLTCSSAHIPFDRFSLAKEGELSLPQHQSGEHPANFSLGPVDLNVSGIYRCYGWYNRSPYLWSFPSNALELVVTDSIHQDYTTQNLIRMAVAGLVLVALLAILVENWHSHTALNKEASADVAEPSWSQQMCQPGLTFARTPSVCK

B1: IgA2 (glycoforms) (protein)
chain: ASPTSPKVFPLSLDSTPQDGNVVVACLVQGFFPQEPLSVTWSESGQNVTARNFPPSQDASGDLYTTSSQLTLPATQCPDGKSVTCHVKHYTNSSQDVTVPCRVPPPPPCCHPRLSLHRPALEDLLLGSEANLTCTLTGLRDASGATFTWTPSSGKSAVQGPPERDLCGCYSVSSVLPGCAQPWNHGETFTCTAAHPELKTPLTANITKSGNTFRPEVHLLPPPSEELALNELVTLTCLARGFSPKDVLVRWLQGSQELPREKYLTWASRQEPSQGTTTYAVTSILRVAAEDWKKGETFSCMVGHEALPLAFTQKTIDRMAGSCCVADWQMPPPYVVLDLPQETLEEETPGANLWPTTITFLTLFLLSLFYSTALTVTSVRGPSGKREGPQY
- Kd: ~300 nM
